Experimental data from the supplement of paper PMC9112550, “Optimization of the antimicrobial peptide Bac7 by deep mutational scanning” (BMC Biology, 2022).

Test system: Escherichia coli TOP10
Assay: shrunken log2 fold change of peptide-encoding DNA abundance (4.5 h post-induction vs induction); higher = less antimicrobial activity (less host growth inhibition)
Details: time post-induction: 4.5 h; library: site-saturation at positions 5, 18, 19, 20
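Further: peptides expressed intracellularly from a pBAD plasmid library in pooled LB shake-flask culture, induced with 0.3% L-arabinose, DNA abundance read by NGS, three biological replicates, DESeq2 with apeglm shrinkage.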

Row | Sequence | shrunken log2 fold change
1 | RRIRMRPPRLPRPRPRPLNGPRP | -0.00843
2 | RRIRMRPPRLPRPRPRPLNVPRP | 0.0507
3 | RRIRMRPPRLPRPRPRPLQGPRP | 0.126
4 | RRIRMRPPRLPRPRPRPLQRPRP | 0.0735
5 | RRIRMRPPRLPRPRPRPLQWPRP | 0.104
6 | RRIRMRPPRLPRPRPRPLRRPRP | 1.94
7 | RRIRMRPPRLPRPRPRPLTDPRP | 1.69
8 | RRIRMRPPRLPRPRPRPLTKPRP | 0.212
9 | RRIRMRPPRLPRPRPRPLTWPRP | 0.308
10 | RRIRMRPPRLPRPRPRPLVDPRP | 0.526
11 | RRIRMRPPRLPRPRPRPLVHPRP | 0.035
12 | RRIRMRPPRLPRPRPRPMALPRP | 0.517
13 | RRIRMRPPRLPRPRPRPMCCPRP | 0.207
14 | RRIRMRPPRLPRPRPRPMDEPRP | 2.34
15 | RRIRMRPPRLPRPRPRPMGQPRP | 0.579
16 | RRIRMRPPRLPRPRPRPMHPPRP | 0.0065
17 | RRIRMRPPRLPRPRPRPMIVPRP | -0.101
18 | RRIRMRPPRLPRPRPRPMIYPRP | -0.178
19 | RRIRMRPPRLPRPRPRPMKCPRP | 0.0208
20 | RRIRMRPPRLPRPRPRPMKFPRP | 0.0534
21 | RRIRMRPPRLPRPRPRPMKIPRP | -0.00146
22 | RRIRMRPPRLPRPRPRPMKSPRP | 0.0897
23 | RRIRMRPPRLPRPRPRPMLAPRP | 2.84
24 | RRIRMRPPRLPRPRPRPMMIPRP | -0.025
25 | RRIRMRPPRLPRPRPRPMNCPRP | -0.00776

Row | Sequence | shrunken log2 fold change
26 | RRIRMRPPRLPRPRPRPMPGPRP | 0.0377
27 | RRIRMRPPRLPRPRPRPMQNPRP | 0.365
28 | RRIRMRPPRLPRPRPRPMQYPRP | -0.315
29 | RRIRMRPPRLPRPRPRPMRNPRP | 1.62
30 | RRIRMRPPRLPRPRPRPMSFPRP | -0.0179
31 | RRIRMRPPRLPRPRPRPMSTPRP | 0.0207
32 | RRIRMRPPRLPRPRPRPMTFPRP | -0.512
33 | RRIRMRPPRLPRPRPRPMTQPRP | 0.22
34 | RRIRMRPPRLPRPRPRPMVGPRP | -0.06
35 | RRIRMRPPRLPRPRPRPNANPRP | 0.777
36 | RRIRMRPPRLPRPRPRPNCRPRP | -0.135
37 | RRIRMRPPRLPRPRPRPNDEPRP | 0.699
38 | RRIRMRPPRLPRPRPRPNDKPRP | 0.145
39 | RRIRMRPPRLPRPRPRPNDYPRP | -0.103
40 | RRIRMRPPRLPRPRPRPNHCPRP | 0.0039
41 | RRIRMRPPRLPRPRPRPNHWPRP | 0.14
42 | RRIRMRPPRLPRPRPRPNLEPRP | 0.284
43 | RRIRMRPPRLPRPRPRPNMAPRP | 0.155
44 | RRIRMRPPRLPRPRPRPNMKPRP | 0.0548
45 | RRIRMRPPRLPRPRPRPNMTPRP | 0.188
46 | RRIRMRPPRLPRPRPRPNPDPRP | 0.377
47 | RRIRMRPPRLPRPRPRPNRPPRP | -0.0884
48 | RRIRMRPPRLPRPRPRPNSAPRP | 0.0568
49 | RRIRMRPPRLPRPRPRPNSDPRP | 0.0685
50 | RRIRMRPPRLPRPRPRPNVCPRP | -0.00865

Row | Sequence | shrunken log2 fold change
51 | RRIRMRPPRLPRPRPRPNVSPRP | 0.141
52 | RRIRMRPPRLPRPRPRPNYFPRP | 0.0511
53 | RRIRMRPPRLPRPRPRPPCVPRP | 0.389
54 | RRIRMRPPRLPRPRPRPPEEPRP | 2.13
55 | RRIRMRPPRLPRPRPRPPFIPRP | 0.082
56 | RRIRMRPPRLPRPRPRPPGCPRP | 0.451
57 | RRIRMRPPRLPRPRPRPPGDPRP | 1.51
58 | RRIRMRPPRLPRPRPRPPGIPRP | 1.2
59 | RRIRMRPPRLPRPRPRPPHAPRP | 1.65
60 | RRIRMRPPRLPRPRPRPPILPRP | 0.0619
61 | RRIRMRPPRLPRPRPRPPLKPRP | 1.23
62 | RRIRMRPPRLPRPRPRPPMSPRP | -0.114
63 | RRIRMRPPRLPRPRPRPPMVPRP | 0.188
64 | RRIRMRPPRLPRPRPRPPMWPRP | -0.0434
65 | RRIRMRPPRLPRPRPRPPNGPRP | 0.234
66 | RRIRMRPPRLPRPRPRPPNNPRP | 0.436
67 | RRIRMRPPRLPRPRPRPPPMPRP | 1.54
68 | RRIRMRPPRLPRPRPRPPQQPRP | 0.945
69 | RRIRMRPPRLPRPRPRPPRQPRP | 1.43
70 | RRIRMRPPRLPRPRPRPPRRPRP | 1.47
71 | RRIRMRPPRLPRPRPRPPRWPRP | -0.117
72 | RRIRMRPPRLPRPRPRPPRYPRP | 1.71
73 | RRIRMRPPRLPRPRPRPPTAPRP | 1.03
74 | RRIRMRPPRLPRPRPRPPTWPRP | 0.627
75 | RRIRMRPPRLPRPRPRPPVGPRP | 1.06

Row | Sequence | shrunken log2 fold change
76 | RRIRMRPPRLPRPRPRPPWRPRP | 1.34
77 | RRIRMRPPRLPRPRPRPQAMPRP | 0.318
78 | RRIRMRPPRLPRPRPRPQCFPRP | 0.275
79 | RRIRMRPPRLPRPRPRPQDHPRP | -0.0101
80 | RRIRMRPPRLPRPRPRPQDMPRP | -0.0638
81 | RRIRMRPPRLPRPRPRPQDTPRP | -0.0435
82 | RRIRMRPPRLPRPRPRPQEEPRP | -0.0207
83 | RRIRMRPPRLPRPRPRPQEHPRP | 0.0123
84 | RRIRMRPPRLPRPRPRPQGHPRP | 0.0616
85 | RRIRMRPPRLPRPRPRPQHAPRP | 0.0286
86 | RRIRMRPPRLPRPRPRPQIQPRP | -0.0708
87 | RRIRMRPPRLPRPRPRPQKFPRP | -0.000921
88 | RRIRMRPPRLPRPRPRPQLFPRP | 0.0897
89 | RRIRMRPPRLPRPRPRPQMNPRP | -0.253
90 | RRIRMRPPRLPRPRPRPQNLPRP | 0.12
91 | RRIRMRPPRLPRPRPRPQNMPRP | -0.631
92 | RRIRMRPPRLPRPRPRPQQGPRP | -0.121
93 | RRIRMRPPRLPRPRPRPQQHPRP | 0.0483
94 | RRIRMRPPRLPRPRPRPQRAPRP | 0.943
95 | RRIRMRPPRLPRPRPRPQRNPRP | 0.209
96 | RRIRMRPPRLPRPRPRPQRPPRP | 0.389
97 | RRIRMRPPRLPRPRPRPQRWPRP | 0.637
98 | RRIRMRPPRLPRPRPRPQWIPRP | -0.00285
99 | RRIRMRPPRLPRPRPRPQYPPRP | -0.0385
100 | RRIRMRPPRLPRPRPRPQYVPRP | -0.0961

Row | Sequence | shrunken log2 fold change
101 | RRIRMRPPRLPRPRPRPRANPRP | 0.922
102 | RRIRMRPPRLPRPRPRPRCCPRP | 0.373
103 | RRIRMRPPRLPRPRPRPRDQPRP | 0.776
104 | RRIRMRPPRLPRPRPRPRDRPRP | 1.11
105 | RRIRMRPPRLPRPRPRPREFPRP | 0.0273
106 | RRIRMRPPRLPRPRPRPRFDPRP | 0.364
107 | RRIRMRPPRLPRPRPRPRGMPRP | 0.861
108 | RRIRMRPPRLPRPRPRPRHDPRP | 0.659
109 | RRIRMRPPRLPRPRPRPRIDPRP | 0.0569
110 | RRIRMRPPRLPRPRPRPRIGPRP | 0.396
111 | RRIRMRPPRLPRPRPRPRKWPRP | 0.363
112 | RRIRMRPPRLPRPRPRPRMQPRP | 0.598
113 | RRIRMRPPRLPRPRPRPRMVPRP | 0.125
114 | RRIRMRPPRLPRPRPRPRNHPRP | 0.263
115 | RRIRMRPPRLPRPRPRPRNSPRP | -0.294
116 | RRIRMRPPRLPRPRPRPRNYPRP | -0.0232
117 | RRIRMRPPRLPRPRPRPRPIPRP | 0.754
118 | RRIRMRPPRLPRPRPRPRQDPRP | 0.271
119 | RRIRMRPPRLPRPRPRPRQQPRP | 0.854
120 | RRIRMRPPRLPRPRPRPRRAPRP | 1.55
121 | RRIRMRPPRLPRPRPRPRREPRP | 1.27
122 | RRIRMRPPRLPRPRPRPRRFPRP | 0.339
123 | RRIRMRPPRLPRPRPRPRRMPRP | 0.73
124 | RRIRMRPPRLPRPRPRPRSCPRP | 0.274
125 | RRIRMRPPRLPRPRPRPRSNPRP | 0.13

Row | Sequence | shrunken log2 fold change
126 | RRIRMRPPRLPRPRPRPRTIPRP | 0.229
127 | RRIRMRPPRLPRPRPRPRTTPRP | 0.714
128 | RRIRMRPPRLPRPRPRPRVSPRP | 0.0315
129 | RRIRMRPPRLPRPRPRPRVTPRP | 0.467
130 | RRIRMRPPRLPRPRPRPRWIPRP | 0.00451
131 | RRIRMRPPRLPRPRPRPRWMPRP | 0.315
132 | RRIRMRPPRLPRPRPRPRYHPRP | -0.186
133 | RRIRMRPPRLPRPRPRPSADPRP | 3.21
134 | RRIRMRPPRLPRPRPRPSCWPRP | 0.594
135 | RRIRMRPPRLPRPRPRPSDMPRP | 0.0637
136 | RRIRMRPPRLPRPRPRPSEGPRP | -0.00192
137 | RRIRMRPPRLPRPRPRPSELPRP | 0.12
138 | RRIRMRPPRLPRPRPRPSFNPRP | -0.535
139 | RRIRMRPPRLPRPRPRPSFWPRP | 0.459
140 | RRIRMRPPRLPRPRPRPSGLPRP | 0.0901
141 | RRIRMRPPRLPRPRPRPSGRPRP | 0.556
142 | RRIRMRPPRLPRPRPRPSGTPRP | 0.215
143 | RRIRMRPPRLPRPRPRPSGYPRP | -0.0299
144 | RRIRMRPPRLPRPRPRPSMIPRP | 0.229
145 | RRIRMRPPRLPRPRPRPSMLPRP | 0.0158
146 | RRIRMRPPRLPRPRPRPSNNPRP | -0.0389
147 | RRIRMRPPRLPRPRPRPSPCPRP | 0.18
148 | RRIRMRPPRLPRPRPRPSQCPRP | -0.112
149 | RRIRMRPPRLPRPRPRPSQHPRP | 0.136
150 | RRIRMRPPRLPRPRPRPSQRPRP | 0.158
